Test results from patent publication US20240182563A1 (GENOME, published 2024).
Numbering of substitutions follows the chain as printed. Names may count otherwise.

T1: human CNTN4-rabbit Fc (human; rabbit, UniProt Q8IWV2 19-1000, limits assumed)
T1 construct: not shown: rabbit Fc
T1 sequence (looked up): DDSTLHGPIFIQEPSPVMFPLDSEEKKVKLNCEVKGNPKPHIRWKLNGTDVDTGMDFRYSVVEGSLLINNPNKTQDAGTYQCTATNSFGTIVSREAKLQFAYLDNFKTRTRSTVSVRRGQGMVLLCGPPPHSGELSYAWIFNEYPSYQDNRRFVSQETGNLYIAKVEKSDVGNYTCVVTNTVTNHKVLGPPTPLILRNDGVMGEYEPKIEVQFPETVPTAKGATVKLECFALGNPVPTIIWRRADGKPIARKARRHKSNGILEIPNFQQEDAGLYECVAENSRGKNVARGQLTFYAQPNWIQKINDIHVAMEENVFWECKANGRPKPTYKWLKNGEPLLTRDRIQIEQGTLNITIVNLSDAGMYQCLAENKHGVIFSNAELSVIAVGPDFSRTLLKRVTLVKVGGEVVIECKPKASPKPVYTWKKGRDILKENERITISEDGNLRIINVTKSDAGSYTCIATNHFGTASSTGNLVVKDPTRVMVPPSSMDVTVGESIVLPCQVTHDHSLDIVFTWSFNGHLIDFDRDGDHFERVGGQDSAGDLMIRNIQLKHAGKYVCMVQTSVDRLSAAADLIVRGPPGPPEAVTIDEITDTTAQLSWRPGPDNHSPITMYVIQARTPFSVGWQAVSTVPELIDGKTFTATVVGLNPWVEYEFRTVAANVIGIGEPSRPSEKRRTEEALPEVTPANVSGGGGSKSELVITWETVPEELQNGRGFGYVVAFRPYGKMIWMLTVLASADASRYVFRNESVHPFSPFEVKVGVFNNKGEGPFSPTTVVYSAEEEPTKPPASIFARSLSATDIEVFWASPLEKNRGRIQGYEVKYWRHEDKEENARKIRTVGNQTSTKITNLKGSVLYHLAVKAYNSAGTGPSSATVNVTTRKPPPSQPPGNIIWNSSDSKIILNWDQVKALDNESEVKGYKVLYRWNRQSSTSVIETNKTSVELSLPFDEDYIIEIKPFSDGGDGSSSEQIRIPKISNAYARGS

T2: mouse CNTN4-rabbit Fc (mouse; rabbit, UniProt Q69Z26 19-1000, limits assumed)
T2 construct: not shown: rabbit Fc
T2 sequence (looked up): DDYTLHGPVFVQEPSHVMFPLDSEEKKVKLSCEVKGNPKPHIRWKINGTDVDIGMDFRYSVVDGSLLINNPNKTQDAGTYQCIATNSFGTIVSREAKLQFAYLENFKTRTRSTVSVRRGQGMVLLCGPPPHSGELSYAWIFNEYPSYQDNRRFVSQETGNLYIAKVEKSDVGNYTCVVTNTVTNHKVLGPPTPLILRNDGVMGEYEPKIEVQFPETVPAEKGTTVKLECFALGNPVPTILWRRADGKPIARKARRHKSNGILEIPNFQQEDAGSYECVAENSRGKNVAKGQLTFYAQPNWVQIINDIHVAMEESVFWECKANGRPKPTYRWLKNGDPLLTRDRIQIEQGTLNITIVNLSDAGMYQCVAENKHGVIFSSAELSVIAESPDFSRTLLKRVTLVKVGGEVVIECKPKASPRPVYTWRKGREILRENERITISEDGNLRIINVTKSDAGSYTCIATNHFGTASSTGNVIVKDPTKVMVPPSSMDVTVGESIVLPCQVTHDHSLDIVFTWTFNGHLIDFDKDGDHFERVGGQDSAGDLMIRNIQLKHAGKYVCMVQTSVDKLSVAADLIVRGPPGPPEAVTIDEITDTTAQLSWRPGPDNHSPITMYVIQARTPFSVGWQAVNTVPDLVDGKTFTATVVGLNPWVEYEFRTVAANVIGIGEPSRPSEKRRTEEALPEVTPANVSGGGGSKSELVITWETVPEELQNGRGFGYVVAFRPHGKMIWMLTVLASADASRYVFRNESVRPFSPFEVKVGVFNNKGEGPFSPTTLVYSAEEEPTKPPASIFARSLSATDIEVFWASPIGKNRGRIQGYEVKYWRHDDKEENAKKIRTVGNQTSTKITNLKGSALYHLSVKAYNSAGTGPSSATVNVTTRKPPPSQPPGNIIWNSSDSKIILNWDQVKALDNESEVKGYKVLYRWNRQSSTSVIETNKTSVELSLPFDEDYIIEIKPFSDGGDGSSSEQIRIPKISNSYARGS

T3: human CNTN4 antigen expressed on the cell membrane of 293FT cells (human, UniProt Q8IWV2 19-1000)
T3 construct: whole, on cells; also called Human CNTN4 transfected cell
T3 sequence (looked up): T1 sequence (looked up)

B1: anti-CNTN4 IgG A13SF2 (antibody, V domains shown)
VH: AVTLDESGGGLQTPGGALSLICKASGFTFSSYGMAWVRQAPGKGLEWVAGITSSGSSAGYGPAVKGRATISRDNGQSTVRLQLNNLRAEDTATYYCAKDGYIYSGADSDSIDAWGHGTEVIVSS
VL: ALTQPSSVSANLGGTVKITCSGGGGSYGWYRQKSPGSAPVTLIYNNNNRPSDIPSRFSGSTSGSTGTLTITGVQADDEAVYFCGGYDSSAGYAALFGAGTTLTVL
notes: human IgG4 (S228P)
B2: anti-CNTN4 IgG A13SF20 (antibody, V domains shown)
VH: B1 VH with Q12H, I21V
VL: ALTQPSSVSANLGGTVEITCSGGSGSYGWYQQKAPGSAPVTLIYNSDKRPSDIPSRFSGSKSGSTGTLTITGVQAEDEAVYFCGGYDSSAIFGAGTTLTVL
notes: human IgG4 (S228P)
B3: anti-CNTN4 IgG A35WB1 (antibody, V domains shown)
VH: B1 VH with Q12H, I21V
VL: ALTQPSSVSANPGETVKITCSGGSGSYGWYQQKSPGSAPVTVIYNNDQRPSNIPSRFSGSKSGSTATLTITGVQVEDEAVYFCGGWDSNSGAIFGAGTTLTVL
notes: human IgG4 (S228P)
B4: anti-CNTN4 IgG A13SF19 (antibody, V domains shown)
VH: B1 VH with Q12H, I21V, P41S
VL: ALTQPSSVSANLGGTVEITCSGSSSGNYGWYQQKSPGSAPVTVIYYNDERPSDIPSRFSGSKSGSTGTLTITGVQAEDEAVYYCGGYEGSTYVGIFGAGTTLTVL
notes: human IgG4 (S228P)
B5: anti-CNTN4 IgG A35SF75 (antibody, V domains shown)
VH: B1 VH with Q12H, I21V
VL: ALTQPSSVSANPGVTVKITCSGGGGSYGWYQQKAPGSAPVTLIYNNTNRPSDIPSRFSGSRSGSTNTLTITGVQAEDEAVYFCGGYDSNTDYVGFGAGTTLTVL
notes: human IgG4 (S228P)
B6: anti-CNTN4 IgG A13SF7 (antibody, V domains shown)
VH: B1 VH with Q12H, I21V
VL: ALTQPSSVSANLGGTVEITCSGGSGSYGWYQQKSPGSAPVTLIYDNTNRPSNIPSRFSGSTSGSTSTLTITGVQADDEAVYFCGSADTNAAYAAIFGAGTTLTVL
notes: human IgG4 (S228P)
B7: anti-CNTN4 IgG A35WB27 (antibody, V domains shown)
VH: B1 VH with Q12H, I21V
VL: ALTQPSSVSANLGETVKITCSGGYSGYGWYQQKSPGSAPVTVIYYNDKRPSDIPSRFSGSKSGSTGTLTITGVRAEDEAVYFCGSADSSTGYVAIFGAGTTLTVL
notes: human IgG4 (S228P)
B8: anti-CNTN4 IgG A35SF37 (antibody, V domains shown)
VH: B1 VH with Q12H, I21V
VL: ALTQPSSVSANLGGTVKITCSGGSNNYGWYQQKSPGSAPVTVIYYNNKRPSDIPSRFSGSKSGSTATLTITGVQAEDEAVYFCGGYDSSSNSDVYGAGTTLTVL
notes: human IgG4 (S228P)
B9: anti-CNTN4 IgG A35SF5 (antibody, V domains shown)
VH: B1 VH with Q12H, I21V
VL: ALTQPSSVSANPGETVEITCSGSSGSNYGWYQQKSPGSAPVTLIYYNDNRPSDIPSRFSGSKSGSTGTLTITGVQVEDEAVYYCGAWESSSNPDIFGAGTTLTVL
notes: human IgG4 (S228P)
B10: anti-CNTN4 IgG A13SF8 (antibody, V domains shown)
VH: B1 VH with Q12H, I21V
VL: ALTQPSSVSANPGGTVKITCSGSGNYGWYQQKSPGSALVTVIYYNDKRPSDIPSRFSGSTSGSTGTLTITGVQVEDEAVYYCGGYDGYSFASIFGAGTTLTVL
notes: human IgG4 (S228P)
B11: anti-CNTN4 IgG A35SF39 (antibody, V domains shown)
VH: B1 VH with Q12H, I21V
VL: ALTQPSSVSANLGGTVKITCSGGSGSYGWYQQKSPGSAPVTVIYNNNNRPSDIPSRFSGSTSGSTGTLTITGVRAEDEAVYFCGGYDTDSPIFGAGTTLTVL
notes: human IgG4 (S228P)
B12: anti-CNTN4 IgG A35SF13 (antibody, V domains shown)
VH: B1 VH with Q12H, I21V
VL: ALTQPSSVSANPGETVKITCSGGGGSYGWYQQKSPGSALVTVIYNNDNRPSNIPSRLSGSKSGSTATLTITGVRAEDEAVYFCGSADNNGYIAIFGAGTTLTVL
notes: human IgG4 (S228P)
B13: anti-CNTN4 IgG A35SF90 (antibody, V domains shown)
VH: B1 VH with Q12H, I21V
VL: ALTQPSSVSANLGGTVEITCSGSNNNNYGWYQQKTPGSAPVTLIYNNNQRPSDIPSRFSGSKSGSTGTLTITGVRAEDEAVYYCGGYDSSIYFDIFGAGTTLTVL
notes: human IgG4 (S228P)
B14: anti-CNTN4 IgG A35SF3 (antibody, V domains shown)
VH: B1 VH with A17G, I21V
VL: B2 VL with G23S, L42V, N45D, S46N, D47T, K48N, A90T
notes: human IgG4 (S228P)
B15: anti-CNTN4 IgG A13SF74 (antibody, V domains shown)
VH: AVTLDESGGGLQTPGGALSLVCKASGFTLSSYAMQWVRQAPGKGLEWVAGISKGGGSTAYGAAVKGRATISRDNGQSTVRLQLNNLRAEDTATYFCAKTTDSNCCSSDSIDAWGHGTEVIVSS
VL: ALTQPSSVSANPGETVKITCSGNSSGCSWYGWFQQKSPGSALVTVIYDNTNRPSNIPSRFSGSRSGSTATLTITGVQAEDEAIYFCGIADSSGAGIFGAGTTLTVL
notes: human IgG4 (S228P)

target: T1, human CNTN4-rabbit Fc; assay: ELISA, plate coated with antigen-rabbit Fc, anti-human IgG Fc-HRP
Procedure: (§1) An ELISA tests were performed on a total of 25 scFv-hCks and a total of 27 IgGs for which the expression was confirmed in Example 1.2. An ELISA plate was coated with 200 ng of antigens (human CNTN4-rabbit Fc or mouse CNTN4-rabbit Fc). 200 ng of a negative control (human antigen-rabbit Fc) for a tagging protein was used. For antibody binding, anti-CNTN4 scFv-hCk was serially diluted from a maximum of 1 μM to 0.001 nM by 1/10×each, and anti-CNTN4 IgG was serially diluted from a maximum of 10 nM to 0.00001 nM by 1/10×each, thereby binding to the antigen. Anti-human kappa-HRP or anti-human IgG Fc-HRP was used as the secondary antibody for antibody detection. Color was developed using ABTS, which is a color developing reagent, and the absorbance at 405 nm was measured.

Row | Binder | EC50
1 | B1 | 0.01 nM
2 | B2 | 0.01 nM
3 | B3 | 0.02 nM
4 | B4 | 0.01 nM
5 | B5 | 0.21 nM
6 | B6 | 0.01 nM
7 | B7 | 0.01 nM
8 | B8 | 0.01 nM
9 | B9 | 0.01 nM
10 | B10 | 0.01 nM
11 | B11 | 0.01 nM
12 | B12 | 0.01 nM
13 | B13 | 0.01 nM
14 | B14 | 0.01 nM
15 | B15 | 0.11 nM

target: T2, mouse CNTN4-rabbit Fc; assay: as above
Procedure: as §1

Row | Binder | EC50
16 | B1 | 0.01 nM
17 | B2 | 0.01 nM
18 | B3 | 0.01 nM
19 | B4 | 0.01 nM
20 | B5 | 0.2 nM
21 | B6 | 0.01 nM
22 | B7 | 0.01 nM
23 | B8 | 0.01 nM
24 | B9 | 0.01 nM
25 | B10 | 0.01 nM
26 | B11 | 0.01 nM
27 | B12 | 0.02 nM
28 | B13 | 0.01 nM
29 | B14 | 0.01 nM
30 | B15 | 0.12 nM

target: T3, human CNTN4 antigen expressed on the …; assay: FACS, 293FT cells transfected with human CNTN4, 40 ug/mL, anti-hFc-PE

Row | Binder | Shift %
31 | B1 | 83.5%
32 | B2 | 82.2%
33 | B3 | 83.9%
34 | B4 | 79.6%
35 | B5 | 84.8%
36 | B6 | 83.2%
37 | B7 | 88.2%
38 | B8 | 86.6%
39 | B9 | 82.6%
40 | B10 | 90.4%
41 | B11 | 80%
42 | B12 | 82.1%
43 | B13 | 82.8%
44 | B14 | 81.9%
45 | B15 | 84.1%
